The target of experiment [1] is T1, hIL-12 receptor signaling complex (hIL-12Rβ1 and hIL-12Rβ2) (human, UniProt P42701 24-662; Q99665 24-862). The experiment can be described thus: cell-based or functional assay.
For experiment [2], the target named is T1, hIL-12 receptor signaling complex …. The experiment can be described thus: cell-based or functional assay. This is another data set of the same source.

T1 sequence (Q99665 24-862, chain 2 of 2, other chains not shown): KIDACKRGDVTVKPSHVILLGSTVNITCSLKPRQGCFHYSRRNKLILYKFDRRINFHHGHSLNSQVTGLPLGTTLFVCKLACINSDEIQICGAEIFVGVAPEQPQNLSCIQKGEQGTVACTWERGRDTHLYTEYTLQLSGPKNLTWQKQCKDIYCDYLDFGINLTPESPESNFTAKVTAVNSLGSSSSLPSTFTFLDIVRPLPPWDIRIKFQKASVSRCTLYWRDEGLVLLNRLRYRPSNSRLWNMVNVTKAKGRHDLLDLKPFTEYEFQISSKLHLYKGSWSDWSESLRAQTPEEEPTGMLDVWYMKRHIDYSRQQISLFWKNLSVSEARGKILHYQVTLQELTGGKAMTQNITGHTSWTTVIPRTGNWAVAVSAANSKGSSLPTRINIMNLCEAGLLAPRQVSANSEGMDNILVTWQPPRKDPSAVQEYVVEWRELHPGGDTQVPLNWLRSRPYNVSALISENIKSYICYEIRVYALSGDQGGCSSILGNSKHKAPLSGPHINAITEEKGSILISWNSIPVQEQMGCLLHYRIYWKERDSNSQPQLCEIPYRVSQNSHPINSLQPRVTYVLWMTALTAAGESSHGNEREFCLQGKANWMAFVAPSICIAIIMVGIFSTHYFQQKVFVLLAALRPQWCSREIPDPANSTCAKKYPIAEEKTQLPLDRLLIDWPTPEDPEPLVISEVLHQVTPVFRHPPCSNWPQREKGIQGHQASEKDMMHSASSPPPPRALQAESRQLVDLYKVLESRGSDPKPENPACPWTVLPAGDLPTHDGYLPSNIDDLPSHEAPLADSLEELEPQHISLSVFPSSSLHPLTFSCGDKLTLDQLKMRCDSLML

B1: human IL12 mutein, hIL-12p40 E81A, F82T with hIL-12p35-8X His (ligand)
chain 1: IWELKKDVYVVELDWYPDAPGEMVVLTCDTPEEDGITWTLDQSSEVLGSGKTLTIQVKATGDAGQYTCHKGGEVLSHSLLLLHKKEDGIWSTDILKDQKEPKNKTFLRCEAKNYSGRFTCWWLTTISTDLTFSVKSSRGSSDPQGVTCGAATLSAERVRGDNKEYEYSVECQEDSACPAAEESLPIEVMVDAVHKLKYENYTSSFFIRDIIKPDPPKNLQLKPLKNSRQVEVSWEYPDTWSTPHSYFSLTFCVQVQGKSKREKKDRVFTDKTSATVICRKNASISVRAQDRYYSSSWSEWASVPCS
chain 2: RNLPVATPDPGMFPCLHHSQNLLRAVSNMLQKARQTLEFYPCTSEEIDHEDITKDKTSTVEACLPLELTKNESCLNSRETSFITNGSCLASRKTSFMMALCLSSIYEDLKMYQVEFKTMNAKLLMDPKRQIFLDQNMLAVIDELMQALNFNSETVPQKSSLEEPDFYKTKIKLCILLHAFRIRAVTIDRVMSYLNASGSHHHHHHHH
With B1, in experiment [1], the “pSTAT4 [gMFI] EC50, CD8+ T Cells” value was 4.5 nM; the “pSTAT4 [gMFI] EC50, CD56hi NK Cells” value is 10.3 nM; the “pSTAT4 [gMFI] Emax, CD8+ T Cells” value is 101000 gMFI; the “pSTAT4 [gMFI] Emax, CD56hi NK Cells” value was determined as 29300 gMFI. In addition, in experiment [2], the “pSTAT4 [%+] EC50, CD8+ T Cells” value came out at 0.87 nM; the “pSTAT4 [%+] EC50, CD56hi NK Cells” value came to 1.9 nM; the “pSTAT4 [%+] Emax, CD8+ T Cells” value was 81.2 %+; the “pSTAT4 [%+] Emax, CD56hi NK Cells” value was found to be 88.2 %+.

B2: human IL12 mutein, hIL-12p40 E81A, F82V with hIL-12p35-8X His (ligand)
chain 1: IWELKKDVYVVELDWYPDAPGEMVVLTCDTPEEDGITWTLDQSSEVLGSGKTLTIQVKAVGDAGQYTCHKGGEVLSHSLLLLHKKEDGIWSTDILKDQKEPKNKTFLRCEAKNYSGRFTCWWLTTISTDLTFSVKSSRGSSDPQGVTCGAATLSAERVRGDNKEYEYSVECQEDSACPAAEESLPIEVMVDAVHKLKYENYTSSFFIRDIIKPDPPKNLQLKPLKNSRQVEVSWEYPDTWSTPHSYFSLTFCVQVQGKSKREKKDRVFTDKTSATVICRKNASISVRAQDRYYSSSWSEWASVPCS
chain 2: RNLPVATPDPGMFPCLHHSQNLLRAVSNMLQKARQTLEFYPCTSEEIDHEDITKDKTSTVEACLPLELTKNESCLNSRETSFITNGSCLASRKTSFMMALCLSSIYEDLKMYQVEFKTMNAKLLMDPKRQIFLDQNMLAVIDELMQALNFNSETVPQKSSLEEPDFYKTKIKLCILLHAFRIRAVTIDRVMSYLNASGSHHHHHHHH
For B2, in experiment [1], the “pSTAT4 [gMFI] EC50, CD8+ T Cells” value was 4.33 nM; the “pSTAT4 [gMFI] EC50, CD56hi NK Cells” value is 17.2 nM; the “pSTAT4 [gMFI] Emax, CD8+ T Cells” value was 102000 gMFI; the “pSTAT4 [gMFI] Emax, CD56hi NK Cells” value is 36800 gMFI. In experiment [2], the “pSTAT4 [%+] EC50, CD8+ T Cells” value turned out to be 0.76 nM; the “pSTAT4 [%+] EC50, CD56hi NK Cells” value came to 1.15 nM; the “pSTAT4 [%+] Emax, CD8+ T Cells” value is 80.9 %+; the “pSTAT4 [%+] Emax, CD56hi NK Cells” value was determined as 89.3 %+.

B3: human IL12 mutein, hIL-12p40 E81A, F82Y with hIL-12p35-8X His (ligand)
chain 1: IWELKKDVYVVELDWYPDAPGEMVVLTCDTPEEDGITWTLDQSSEVLGSGKTLTIQVKAYGDAGQYTCHKGGEVLSHSLLLLHKKEDGIWSTDILKDQKEPKNKTFLRCEAKNYSGRFTCWWLTTISTDLTFSVKSSRGSSDPQGVTCGAATLSAERVRGDNKEYEYSVECQEDSACPAAEESLPIEVMVDAVHKLKYENYTSSFFIRDIIKPDPPKNLQLKPLKNSRQVEVSWEYPDTWSTPHSYFSLTFCVQVQGKSKREKKDRVFTDKTSATVICRKNASISVRAQDRYYSSSWSEWASVPCS
chain 2: RNLPVATPDPGMFPCLHHSQNLLRAVSNMLQKARQTLEFYPCTSEEIDHEDITKDKTSTVEACLPLELTKNESCLNSRETSFITNGSCLASRKTSFMMALCLSSIYEDLKMYQVEFKTMNAKLLMDPKRQIFLDQNMLAVIDELMQALNFNSETVPQKSSLEEPDFYKTKIKLCILLHAFRIRAVTIDRVMSYLNASGSHHHHHHHH
For the molecule B3, in experiment [1], the “pSTAT4 [gMFI] EC50, CD8+ T Cells” value stood at 0.37 nM; the “pSTAT4 [gMFI] EC50, CD56hi NK Cells” value was determined as 1.19 nM; the “pSTAT4 [gMFI] Emax, CD8+ T Cells” value was 108000 gMFI; the “pSTAT4 [gMFI] Emax, CD56hi NK Cells” value came to 35700 gMFI. For the same molecule, in experiment [2], the “pSTAT4 [%+] EC50, CD8+ T Cells” value was determined as 90 pM; the “pSTAT4 [%+] EC50, CD56hi NK Cells” value is 0.19 nM; the “pSTAT4 [%+] Emax, CD8+ T Cells” value amounted to 83.5 %+; the “pSTAT4 [%+] Emax, CD56hi NK Cells” value was 91.7 %+.

B4: human IL12 mutein, hIL-12p40 E81A, F82W with hIL-12p35-8X His (ligand)
chain 1: IWELKKDVYVVELDWYPDAPGEMVVLTCDTPEEDGITWTLDQSSEVLGSGKTLTIQVKAWGDAGQYTCHKGGEVLSHSLLLLHKKEDGIWSTDILKDQKEPKNKTFLRCEAKNYSGRFTCWWLTTISTDLTFSVKSSRGSSDPQGVTCGAATLSAERVRGDNKEYEYSVECQEDSACPAAEESLPIEVMVDAVHKLKYENYTSSFFIRDIIKPDPPKNLQLKPLKNSRQVEVSWEYPDTWSTPHSYFSLTFCVQVQGKSKREKKDRVFTDKTSATVICRKNASISVRAQDRYYSSSWSEWASVPCS
chain 2: RNLPVATPDPGMFPCLHHSQNLLRAVSNMLQKARQTLEFYPCTSEEIDHEDITKDKTSTVEACLPLELTKNESCLNSRETSFITNGSCLASRKTSFMMALCLSSIYEDLKMYQVEFKTMNAKLLMDPKRQIFLDQNMLAVIDELMQALNFNSETVPQKSSLEEPDFYKTKIKLCILLHAFRIRAVTIDRVMSYLNASGSHHHHHHHH
For B4, in experiment [1], the “pSTAT4 [gMFI] EC50, CD8+ T Cells” value was determined as 1.22 nM; the “pSTAT4 [gMFI] EC50, CD56hi NK Cells” value came out at 1.82 nM; the “pSTAT4 [gMFI] Emax, CD8+ T Cells” value worked out at 111000 gMFI; the “pSTAT4 [gMFI] Emax, CD56hi NK Cells” value is 30700 gMFI. Further, in experiment [2], the “pSTAT4 [%+] EC50, CD8+ T Cells” value is 0.29 nM; the “pSTAT4 [%+] EC50, CD56hi NK Cells” value came to 0.39 nM; the “pSTAT4 [%+] Emax, CD8+ T Cells” value was 84.1 %+; the “pSTAT4 [%+] Emax, CD56hi NK Cells” value stood at 88.4 %+.

B5: human IL12 mutein, hIL-12p40 E81A, F82R with hIL-12p35-8X His (ligand)
chain 1: IWELKKDVYVVELDWYPDAPGEMVVLTCDTPEEDGITWTLDQSSEVLGSGKTLTIQVKARGDAGQYTCHKGGEVLSHSLLLLHKKEDGIWSTDILKDQKEPKNKTFLRCEAKNYSGRFTCWWLTTISTDLTFSVKSSRGSSDPQGVTCGAATLSAERVRGDNKEYEYSVECQEDSACPAAEESLPIEVMVDAVHKLKYENYTSSFFIRDIIKPDPPKNLQLKPLKNSRQVEVSWEYPDTWSTPHSYFSLTFCVQVQGKSKREKKDRVFTDKTSATVICRKNASISVRAQDRYYSSSWSEWASVPCS
chain 2: RNLPVATPDPGMFPCLHHSQNLLRAVSNMLQKARQTLEFYPCTSEEIDHEDITKDKTSTVEACLPLELTKNESCLNSRETSFITNGSCLASRKTSFMMALCLSSIYEDLKMYQVEFKTMNAKLLMDPKRQIFLDQNMLAVIDELMQALNFNSETVPQKSSLEEPDFYKTKIKLCILLHAFRIRAVTIDRVMSYLNASGSHHHHHHHH
In the case of B5, in experiment [1], the “pSTAT4 [gMFI] EC50, CD8+ T Cells” value was found to be 5.54 nM; the “pSTAT4 [gMFI] EC50, CD56hi NK Cells” value is 7.62 nM; the “pSTAT4 [gMFI] Emax, CD8+ T Cells” value amounted to 101000 gMFI; the “pSTAT4 [gMFI] Emax, CD56hi NK Cells” value came to 28000 gMFI. Besides, in experiment [2], the “pSTAT4 [%+] EC50, CD8+ T Cells” value amounted to 0.98 nM; the “pSTAT4 [%+] EC50, CD56hi NK Cells” value turned out to be 1.36 nM; the “pSTAT4 [%+] Emax, CD8+ T Cells” value was found to be 80.2 %+; the “pSTAT4 [%+] Emax, CD56hi NK Cells” value was 86.9 %+.

For the origin of these results see patent US20250388640A1 (SYNTHEKINE, published 2025).
